Measured values: the supplement of paper PMC10065799, “High-throughput profiling of sequence recognition by tyrosine kinases and SH2 domains using bacterial peptide display” (eLife, 2023)

Experiments:
AncSZ = test: phosphorylation enrichment, bacterial display (enrichment ratio); higher = better substrate or ligand; peptides without Tyr show the background
EPHB1 = EPHB1 (UniProt P54762); test: as above
EPHB2 = EPHB2 (UniProt P29323); test: as above
FGFR1 = FGFR1 (UniProt P11362); test: as above
FGFR3 = FGFR3 (UniProt P22607); test: as above
Fer (mouse) = test: as above
Fes = Fes (UniProt P07332); test: as above
Fyn = Fyn (UniProt P06241); test: as above
Hck = Hck (UniProt P08631); test: as above
Sequence of Hck (P08631 whole entry, looked up): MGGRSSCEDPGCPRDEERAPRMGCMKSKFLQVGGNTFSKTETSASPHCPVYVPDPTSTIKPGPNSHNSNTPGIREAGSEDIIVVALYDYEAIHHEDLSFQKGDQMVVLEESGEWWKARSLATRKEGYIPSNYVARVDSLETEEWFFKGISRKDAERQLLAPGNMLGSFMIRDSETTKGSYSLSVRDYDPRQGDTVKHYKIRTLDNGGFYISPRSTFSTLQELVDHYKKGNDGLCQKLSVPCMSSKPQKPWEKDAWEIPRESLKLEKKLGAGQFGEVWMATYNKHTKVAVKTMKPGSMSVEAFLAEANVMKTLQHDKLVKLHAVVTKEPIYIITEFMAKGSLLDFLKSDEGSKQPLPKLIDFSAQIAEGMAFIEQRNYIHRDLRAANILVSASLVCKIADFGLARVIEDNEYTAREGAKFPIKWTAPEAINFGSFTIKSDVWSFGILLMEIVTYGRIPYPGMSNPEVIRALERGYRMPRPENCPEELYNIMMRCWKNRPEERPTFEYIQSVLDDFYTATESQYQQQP

Jak2 = Jak2 (UniProt O60674); test: as above
Sequence of Jak2 (O60674 whole entry, looked up): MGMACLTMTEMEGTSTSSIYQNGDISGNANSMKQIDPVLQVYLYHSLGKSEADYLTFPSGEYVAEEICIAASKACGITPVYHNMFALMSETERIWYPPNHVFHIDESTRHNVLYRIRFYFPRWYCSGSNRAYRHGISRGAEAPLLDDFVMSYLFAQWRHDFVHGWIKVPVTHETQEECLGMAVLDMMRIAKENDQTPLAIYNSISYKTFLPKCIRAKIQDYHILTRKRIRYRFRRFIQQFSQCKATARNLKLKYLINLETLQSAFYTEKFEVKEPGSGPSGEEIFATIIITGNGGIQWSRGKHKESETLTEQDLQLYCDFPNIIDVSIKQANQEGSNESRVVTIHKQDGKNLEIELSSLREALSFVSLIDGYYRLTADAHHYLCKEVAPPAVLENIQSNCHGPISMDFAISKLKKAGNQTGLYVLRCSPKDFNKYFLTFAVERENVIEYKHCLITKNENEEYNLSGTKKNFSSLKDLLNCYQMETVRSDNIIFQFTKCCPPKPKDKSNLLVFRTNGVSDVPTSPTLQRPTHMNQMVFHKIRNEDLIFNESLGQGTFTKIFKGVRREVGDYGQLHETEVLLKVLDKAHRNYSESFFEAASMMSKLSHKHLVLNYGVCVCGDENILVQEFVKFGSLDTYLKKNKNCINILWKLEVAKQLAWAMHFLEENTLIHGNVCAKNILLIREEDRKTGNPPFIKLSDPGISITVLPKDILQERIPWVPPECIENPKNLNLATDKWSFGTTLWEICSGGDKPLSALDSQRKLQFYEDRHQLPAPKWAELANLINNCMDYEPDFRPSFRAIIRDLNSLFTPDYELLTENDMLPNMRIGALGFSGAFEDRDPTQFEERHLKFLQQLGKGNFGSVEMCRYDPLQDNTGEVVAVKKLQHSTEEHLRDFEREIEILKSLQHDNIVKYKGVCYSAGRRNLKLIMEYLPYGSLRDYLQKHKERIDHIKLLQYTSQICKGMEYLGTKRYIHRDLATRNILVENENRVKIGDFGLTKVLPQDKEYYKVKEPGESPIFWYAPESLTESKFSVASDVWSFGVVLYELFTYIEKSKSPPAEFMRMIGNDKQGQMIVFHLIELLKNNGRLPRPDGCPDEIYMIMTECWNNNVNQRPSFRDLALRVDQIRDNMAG

MERTK = MERTK (UniProt Q12866); test: as above
Sequence of MERTK (Q12866 whole entry, looked up): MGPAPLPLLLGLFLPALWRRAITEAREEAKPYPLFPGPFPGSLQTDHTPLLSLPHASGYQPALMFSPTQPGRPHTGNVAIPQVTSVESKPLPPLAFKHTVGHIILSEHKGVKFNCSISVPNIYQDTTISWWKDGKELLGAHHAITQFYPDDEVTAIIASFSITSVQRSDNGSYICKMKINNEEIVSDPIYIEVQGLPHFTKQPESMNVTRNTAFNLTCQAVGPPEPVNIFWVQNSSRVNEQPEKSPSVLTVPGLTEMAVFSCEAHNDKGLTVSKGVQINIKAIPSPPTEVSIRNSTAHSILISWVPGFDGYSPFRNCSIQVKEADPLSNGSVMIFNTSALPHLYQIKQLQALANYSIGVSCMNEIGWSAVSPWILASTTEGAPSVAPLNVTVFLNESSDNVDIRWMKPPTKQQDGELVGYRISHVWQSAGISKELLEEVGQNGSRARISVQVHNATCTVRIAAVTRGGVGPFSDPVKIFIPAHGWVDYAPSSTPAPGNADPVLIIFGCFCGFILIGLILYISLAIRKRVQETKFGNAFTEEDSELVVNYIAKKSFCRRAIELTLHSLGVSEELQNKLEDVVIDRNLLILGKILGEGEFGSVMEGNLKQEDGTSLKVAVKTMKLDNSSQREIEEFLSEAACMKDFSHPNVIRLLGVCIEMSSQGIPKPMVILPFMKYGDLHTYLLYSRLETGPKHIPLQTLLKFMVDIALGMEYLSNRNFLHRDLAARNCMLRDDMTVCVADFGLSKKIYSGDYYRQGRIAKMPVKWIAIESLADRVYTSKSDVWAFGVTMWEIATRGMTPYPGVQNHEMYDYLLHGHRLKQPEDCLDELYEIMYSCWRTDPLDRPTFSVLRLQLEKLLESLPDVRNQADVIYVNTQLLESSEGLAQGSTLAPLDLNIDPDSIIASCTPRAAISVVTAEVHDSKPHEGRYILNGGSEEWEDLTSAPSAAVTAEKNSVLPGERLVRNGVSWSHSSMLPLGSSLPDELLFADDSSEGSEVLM

c-Abl (mouse) = test: as above
c-Src = test: as above
Grb2 SH2 = Grb2 SH2 (UniProt P62993); test: SH2 binding enrichment of the phosphorylated peptide, bacterial display (enrichment ratio); higher = better substrate or ligand; peptides without Tyr show the background
SHP2-C SH2 = test: as above
c-Src SH2 = test: as above
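For SH2 binding enrichment of the phosphorylated peptide, bacterial display in this document: peptide library displayed on the E. coli surface as eCPX fusions, selected cells deep-sequenced, score is each peptide's frequency after selection divided by its frequency in the input.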
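For phosphorylation enrichment, bacterial display in this document: 11-residue human phosphosite peptides and single-mutation variants displayed on the E. coli surface, counted by deep sequencing, each peptide's frequency after selection divided by its frequency in the unselected input library; frequency after pTyr selection over input frequency; kinase dosed for 20-30% of maximal phosphorylation in three min.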

Sequence of EPHB1 (P54762 whole entry, looked up): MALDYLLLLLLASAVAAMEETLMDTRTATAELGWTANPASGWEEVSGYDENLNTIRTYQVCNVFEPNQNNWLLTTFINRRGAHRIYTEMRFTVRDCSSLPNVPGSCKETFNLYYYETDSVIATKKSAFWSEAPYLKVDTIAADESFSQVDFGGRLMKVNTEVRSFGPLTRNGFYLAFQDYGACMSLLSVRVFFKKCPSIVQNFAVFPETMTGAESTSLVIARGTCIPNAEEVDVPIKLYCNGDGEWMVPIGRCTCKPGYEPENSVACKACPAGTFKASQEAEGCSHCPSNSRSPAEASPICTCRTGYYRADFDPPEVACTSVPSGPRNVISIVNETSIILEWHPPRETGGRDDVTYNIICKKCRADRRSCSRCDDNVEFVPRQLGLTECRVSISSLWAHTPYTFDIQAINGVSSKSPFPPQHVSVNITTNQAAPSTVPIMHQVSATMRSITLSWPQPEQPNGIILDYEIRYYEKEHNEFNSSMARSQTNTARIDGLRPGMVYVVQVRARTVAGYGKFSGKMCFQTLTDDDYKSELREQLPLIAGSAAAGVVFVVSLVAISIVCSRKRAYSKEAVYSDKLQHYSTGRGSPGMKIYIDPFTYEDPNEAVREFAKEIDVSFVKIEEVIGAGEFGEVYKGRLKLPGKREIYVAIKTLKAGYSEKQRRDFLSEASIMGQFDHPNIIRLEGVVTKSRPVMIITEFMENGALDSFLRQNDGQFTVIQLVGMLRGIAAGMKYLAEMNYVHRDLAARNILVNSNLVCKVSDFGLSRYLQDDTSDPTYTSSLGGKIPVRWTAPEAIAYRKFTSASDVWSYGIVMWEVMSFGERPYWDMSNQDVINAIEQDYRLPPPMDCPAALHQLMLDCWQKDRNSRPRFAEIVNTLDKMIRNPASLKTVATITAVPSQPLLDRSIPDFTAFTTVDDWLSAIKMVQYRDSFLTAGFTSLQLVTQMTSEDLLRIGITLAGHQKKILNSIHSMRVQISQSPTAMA
Sequence of EPHB2 (P29323 whole entry, looked up): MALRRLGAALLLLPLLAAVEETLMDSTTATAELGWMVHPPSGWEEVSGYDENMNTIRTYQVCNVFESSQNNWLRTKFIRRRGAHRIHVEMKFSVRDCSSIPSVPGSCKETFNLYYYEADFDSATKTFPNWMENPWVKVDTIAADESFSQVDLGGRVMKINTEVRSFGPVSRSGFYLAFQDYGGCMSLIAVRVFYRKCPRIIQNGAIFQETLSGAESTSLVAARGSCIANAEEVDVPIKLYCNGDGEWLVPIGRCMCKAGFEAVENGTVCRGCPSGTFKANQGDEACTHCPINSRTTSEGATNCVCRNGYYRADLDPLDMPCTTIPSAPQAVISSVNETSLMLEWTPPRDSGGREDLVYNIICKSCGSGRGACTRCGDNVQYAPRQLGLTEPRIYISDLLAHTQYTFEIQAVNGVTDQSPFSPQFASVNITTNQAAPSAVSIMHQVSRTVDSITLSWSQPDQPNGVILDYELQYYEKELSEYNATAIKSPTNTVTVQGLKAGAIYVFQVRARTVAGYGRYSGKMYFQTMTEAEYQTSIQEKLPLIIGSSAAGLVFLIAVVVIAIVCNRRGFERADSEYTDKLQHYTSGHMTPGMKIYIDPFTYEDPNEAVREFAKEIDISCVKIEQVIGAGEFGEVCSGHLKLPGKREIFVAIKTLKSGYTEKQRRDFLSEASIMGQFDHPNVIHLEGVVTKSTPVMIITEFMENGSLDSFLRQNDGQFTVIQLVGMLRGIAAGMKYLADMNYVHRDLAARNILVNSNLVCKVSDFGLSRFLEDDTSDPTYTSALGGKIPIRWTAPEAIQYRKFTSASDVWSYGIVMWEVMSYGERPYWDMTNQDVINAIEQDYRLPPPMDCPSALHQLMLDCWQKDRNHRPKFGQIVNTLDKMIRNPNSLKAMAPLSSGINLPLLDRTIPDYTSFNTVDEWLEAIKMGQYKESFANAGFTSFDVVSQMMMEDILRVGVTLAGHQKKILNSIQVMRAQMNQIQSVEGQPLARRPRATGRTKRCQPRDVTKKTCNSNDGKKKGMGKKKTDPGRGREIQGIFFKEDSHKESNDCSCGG

Sequence | SH2 binding enrichment (Grb2 SH2) | SH2 binding enrichment (SHP2-C SH2) | SH2 binding enrichment (c-Src SH2) | phosphorylation enrichment (AncSZ) | phosphorylation enrichment (EPHB1) | phosphorylation enrichment (EPHB2) | phosphorylation enrichment (FGFR1) | phosphorylation enrichment (FGFR3) | phosphorylation enrichment (Fer (mouse)) | phosphorylation enrichment (Fes) | phosphorylation enrichment (Fyn) | phosphorylation enrichment (Hck) | phosphorylation enrichment (Jak2) | phosphorylation enrichment (MERTK) | phosphorylation enrichment (c-Abl (mouse)) | phosphorylation enrichment (c-Src)
AQADIYKANFQ [IKBKG_Y308_D311N] | 0.873 | 0.729 | 0.504 | 0.586 | 0.361 | 0.408 | 0.389 | 0.573 | 0.461 | 0.81 | 0.536 | 0.659 | 0.829 | 0.461 | 0.761 | 0.799
CTTIHQNFMCN [TP53_Y234_Y234Q_YF] | 1.2 | 1.02 | 1.12 | 0.9 | 0.421 | 0.497 | 0.459 | 0.614 | 0.421 | 0.855 | 0.435 | 0.397 | 0.575 | 0.377 | 0.497 | 0.391
YIATQYSLRPR [LBR_Y166] | 0.762 | 0.685 | 0.392 | 0.932 | 0.511 | 0.493 | 0.551 | 0.527 | 0.439 | 0.773 | 0.558 | 0.568 | 0.779 | 0.731 | 0.72 | 0.659
IKELTYQMEED [MYH7_Y1852_T1854M] | 0.825 | 0.605 | 0.507 | 1.19 | 0.634 | 0.628 | 0.591 | 0.768 | 0.495 | 1.18 | 0.889 | 0.646 | 1.01 | 0.432 | 0.667 | 1.21
VNKIYYPDFIV [LIG3_Y768] | 1.07 | 0.697 | 0.675 | 1.23 | 0.621 | 0.516 | 8.82 | 7.46 | 0.494 | 0.918 | 1.09 | 1.25 | 0.666 | 2.72 | 0.596 | 1.48
YISLIYTNYEV [GSTP1_Y109_A114V] | 1.18 | 1.5 | 1.16 | 1.82 | 2 | 1.83 | 4.89 | 4.26 | 5.32 | 1.55 | 4.07 | 2.59 | 1.54 | 3.93 | 2.16 | 4.53
LERYIYNREEY [HLA-DPB1_Y59_F64Y] | 1.08 | 0.642 | 1.8 | 1.08 | 0.568 | 0.982 | 0.726 | 0.903 | 0.519 | 1.25 | 1.77 | 1.72 | 0.998 | 0.719 | 0.752 | 3.15
AVAFVYYKSIG [ADGRL4_Y301] | 1.02 | 0.758 | 0.76 | 1.18 | 0.615 | 0.585 | 0.451 | 0.641 | 0.53 | 1.29 | 0.458 | 0.463 | 1.2 | 0.401 | 0.67 | 0.489
DRLASYQDKVR [KRT12_Y139_L140Q] | 0.786 | 0.685 | 0.546 | 0.532 | 0.411 | 0.461 | 0.394 | 0.539 | 0.299 | 0.68 | 0.361 | 0.417 | 0.577 | 0.437 | 0.516 | 0.41
ITKNPYDPPGR | 0.868 | 0.622 | 0.513 | 0.657 | 0.457 | 0.428 | 0.427 | 0.645 | 0.437 | 0.766 | 0.432 | 0.454 | 0.662 | 0.424 | 0.556 | 0.433
DLAAQYTTVGR [SGSH_Y240] | 0.824 | 1.24 | 3.41 | 0.701 | 0.407 | 0.415 | 0.462 | 0.53 | 0.382 | 0.664 | 0.52 | 0.799 | 0.724 | 0.494 | 0.542 | 0.912

The next lines start with results.

SH2 binding enrichment (Grb2 SH2) | SH2 binding enrichment (SHP2-C SH2) | SH2 binding enrichment (c-Src SH2) | Sequence | phosphorylation enrichment (AncSZ) | phosphorylation enrichment (EPHB1) | phosphorylation enrichment (EPHB2) | phosphorylation enrichment (FGFR1) | phosphorylation enrichment (FGFR3) | phosphorylation enrichment (Fer (mouse)) | phosphorylation enrichment (Fes) | phosphorylation enrichment (Fyn) | phosphorylation enrichment (Hck) | phosphorylation enrichment (Jak2) | phosphorylation enrichment (MERTK) | phosphorylation enrichment (c-Abl (mouse)) | phosphorylation enrichment (c-Src)
1.27 | 0.66 | 0.609 | RQEEEYKRFSE [SFSWAP_Y133_L136F] | 1.41 | 0.779 | 0.88 | 0.712 | 0.918 | 0.663 | 1.95 | 0.602 | 0.648 | 1.11 | 0.682 | 0.831 | 0.554
1.94 | 2.83 | 1.44 | YMLYQYLKQIE [RPAP3_Y569_D564Y] | 1.53 | 13.3 | 10.5 | 6.02 | 4.47 | 6.78 | 1.11 | 1.56 | 5.99 | 1.85 | 8.62 | 1.6 | 2.25
3.84 | 1.35 | 18.6 | PARLEYYENEK [IRS1_Y46] | 1.26 | 0.613 | 0.723 | 0.533 | 0.882 | 0.25 | 1.26 | 0.732 | 0.48 | 1.17 | 0.547 | 0.725 | 0.711
1.12 | 1.52 | 1.17 | TFMKKYPKVFL [CNBD1_Y70_Q69K] | 3.41 | 0.508 | 0.419 | 0.485 | 0.419 | 0.393 | 0.662 | 0.357 | 0.366 | 0.642 | 0.404 | 0.548 | 0.447
0.808 | 0.462 | 0.453 | DFDNLYYWDQD [ERBB2_Y1221_A1216D] | 2.68 | 4.08 | 3.3 | 9.53 | 9.13 | 3.8 | 1.96 | 6.81 | 5.31 | 1.86 | 7.57 | 0.973 | 6.09
